According to patent US20120156198A1 (Hoffmann-La Roche, published 2012):

T1: recombinant human IL-18Rα Fc chimera (R&D Systems, Cat. No. 816-LR) (human, UniProt Q13478 19-329)
T1 construct: Bought protein; also called hIL-18Rα (hFc-chimera R&D-Systems 816-LR); recombinant human IL-18Rα-Fc fusion protein; not shown: human Fc of the commercial chimera
T1 sequence: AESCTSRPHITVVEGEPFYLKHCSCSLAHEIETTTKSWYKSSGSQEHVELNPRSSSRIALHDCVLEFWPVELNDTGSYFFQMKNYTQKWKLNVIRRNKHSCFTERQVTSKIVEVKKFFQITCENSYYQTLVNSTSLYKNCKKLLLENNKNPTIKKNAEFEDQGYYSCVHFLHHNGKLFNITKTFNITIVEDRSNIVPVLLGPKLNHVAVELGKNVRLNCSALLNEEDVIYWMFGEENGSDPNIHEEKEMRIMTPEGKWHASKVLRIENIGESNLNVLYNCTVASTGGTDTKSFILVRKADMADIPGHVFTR

T2: rhIL-1R3/hFc (R&D Systems, Cat. No. 676-CP) (human, UniProt Q9NPH3 21-359, limits assumed)
T2 construct: Bought; not shown: human Fc (hFc) of the commercial protein
T2 sequence (looked up): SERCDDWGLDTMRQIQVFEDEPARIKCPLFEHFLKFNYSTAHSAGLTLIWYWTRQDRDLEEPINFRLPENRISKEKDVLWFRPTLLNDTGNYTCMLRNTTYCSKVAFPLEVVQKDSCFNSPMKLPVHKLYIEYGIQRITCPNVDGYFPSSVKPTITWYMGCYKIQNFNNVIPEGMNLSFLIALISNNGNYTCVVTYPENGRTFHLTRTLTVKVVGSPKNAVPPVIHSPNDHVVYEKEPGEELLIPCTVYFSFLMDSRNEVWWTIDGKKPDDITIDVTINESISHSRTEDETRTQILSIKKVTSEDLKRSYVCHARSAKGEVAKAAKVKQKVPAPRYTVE

T3: rhIL-2Rα/hFc (R&D Systems, Cat. No. 1020-RL) (human, UniProt P01589 22-213)
T3 construct: Bought; not shown: human Fc (hFc) of the commercial protein
T3 sequence (looked up): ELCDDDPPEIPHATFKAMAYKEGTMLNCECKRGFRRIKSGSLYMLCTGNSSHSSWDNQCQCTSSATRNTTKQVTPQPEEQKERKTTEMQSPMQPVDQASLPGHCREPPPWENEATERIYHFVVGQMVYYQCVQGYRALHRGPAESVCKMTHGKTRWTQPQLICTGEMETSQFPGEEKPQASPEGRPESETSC

T4: rhST-2/hFc (R&D Systems, Cat. No. 523-ST) (human, UniProt Q01638-2 19-328, limits assumed)
T4 construct: Bought; not shown: human Fc (hFc) of the commercial protein
T4 sequence (looked up): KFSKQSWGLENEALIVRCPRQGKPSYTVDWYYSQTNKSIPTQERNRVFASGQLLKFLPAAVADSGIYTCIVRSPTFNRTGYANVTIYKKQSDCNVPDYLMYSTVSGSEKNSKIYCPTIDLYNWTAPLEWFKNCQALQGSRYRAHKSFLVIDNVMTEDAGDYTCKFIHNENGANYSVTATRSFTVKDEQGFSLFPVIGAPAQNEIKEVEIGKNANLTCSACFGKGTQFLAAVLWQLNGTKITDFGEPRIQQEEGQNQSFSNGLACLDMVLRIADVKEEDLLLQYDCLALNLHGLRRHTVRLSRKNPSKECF


Experiments:
[1] = target: T1, recombinant human IL-18Rα Fc chimera …; experiment: SPR (BIACORE), 37°C, antibody captured, hIL-18Rα hFc chimera in solution
Experimental: Coupling: amine coupling Buffer: 1×PBS (10×PBS, Ambion cat. AM9625), pH 7.4, 37° C. […] Association was measured by a hIL-18Rα-injection of 1.5 minutes at 37° C.; dissociation was measured by washing the chip surface with buffer for 10 minutes at 37° C. For calculation of apparent KD and other kinetic parameters the Langmuir 1:1 model was used.

[2] = target: T2, rhIL-1R3/hFc (R&D Systems, Cat. No. …); experiment: ELISA, hFc fusion protein captured on anti-human Fc
Experimental: (§1) The test was performed on 384-well microtiter plates (MaxiSorp™, Thermo Scientific Nunc, DK, Cat. No. 464718) at RT. After each incubation step, plates were washed 3 times with PBST. At the beginning, plates were coated with 0.5 μg/ml goat anti-human IgG Fc fragment (Jackson 1 mm. Res., US, Cat. No. 109-006-170) for at least 2 hours (h). Thereafter the wells were blocked with PBS supplemented with 0.2% Tween®-20 and 2% BSA (Roche Diagnostics GmbH, DE) for 1 h. 0.2 μg/ml of recombinant human IL-18Rα-Fc fusion protein (R&D Systems, UK, Cat. No. 816-LR) was captured on plate for 1 h. For testing the binding of antibodies to other proteins of the IL-1 receptor family 0.2 μg/ml of the following recombinant human proteins conjugated to human Fc (hFc) were captured: [0194] rhIL-1RI/hFc (R&D Systems, UK, Cat. No. 269-1R) [0195] rhIL-1sRII/hFc (R&D Systems, UK, Cat. No. 263-2R) [0196] rhIL-1R3/hFc (R&D Systems, UK, Cat. No. 676-CP) [0197] rhIL-2Rα/hFc (R&D Systems, UK, Cat. No. 1020-RL) [0198] rhIL-7Rα/hFc (R&D Systems, UK, Cat. No. 306-IR) [0199] rhIL-15R/hFc (R&D Systems, UK, Cat. No. 147-IR) [0200] rhST-2/hFc (R&D Systems, UK, Cat. No. 523-ST)
(§2) After washing the plate, dilutions of purified antibodies in PBS with 0.05% BSA and 0.2% Tween®-20 were incubated with the receptor proteins for 1 h. Binding of antibodies was detected with 1:2000 diluted horseradish peroxidase (HRP)-conjugates of anti-mouse IgG (GE Healthcare, UK, Cat. No. NA9310V). After 1 h the plates were washed 6 times with PBST and developed with freshly prepared BM Blue® POD substrate solution (BM Blue®: 3,3″-5,5″-Tetramethylbenzidine, Roche Diagnostics GmbH, DE, Cat. No. 11484281001) for 30 minutes at RT. Absorbance was measured at 370 nm. The values were corrected for the control without antibody.

[3] = target: T3, rhIL-2Rα/hFc (R&D Systems, Cat. No. …); experiment: as above
Experimental: as §1, §2

[4] = target: T4, rhST-2/hFc (R&D Systems, Cat. No. …); experiment: as above
Experimental: as §1, §2

| Binder | koff [1] | kon [1] | t1/2 [1] | absorbance at 370 nm (corrected for the control without antibody) [2] | absorbance at 370 nm (corrected for the control without antibody) [3] | absorbance at 370 nm (corrected for the control without antibody) [4] |
| --- | --- | --- | --- | --- | --- | --- |
| Mab 1G12 (antibody, V domains shown, Monoclonal antibody from immunized NMRI mice; detected with anti-mouse IgG1-PE / anti-mouse IgG; also called F20.1G12; monoclonal antibody 1G12) VH: QVQLQQPGAELVKPGASVRMSCKTSDYTFTSNWMHWVKQRPGQGLEWIGTIDPSDSYTYYNQKFKGRATLTVDTSSSTAYMQLSSLTSEDSAVYYCTTSGDYDADRYFDVWGAGTTVTVSS VL: DIVLTQSPASLGVSLGQRATISCRASKSVSTSGDSYMHWYQQKPGQSPKLLIYLASNLESGVPARFSGSGSGTDFTLNIHPVEEEDAATYYCQQSRELPLSFGAGTKLELK | 0.0002 s⁻¹ | 8.2e+06 M⁻¹ s⁻¹ | 0.967 h | – | – | – |
| Mab 2D11 (antibody, V domains shown, Monoclonal antibody from immunized NMRI mice; detected with anti-mouse IgG1-PE / anti-mouse IgG; also called F20.2D11) VH: QVQLQQPGAELVKPGASVKMSCKASDYTFTSNWMHWVKQRPGQGLEWIGTIDPSDSYTYYNQKFKGKATLTVDTSSSTAYMHLSSLTSEDSAVYYCTTSGDYDADRYFDVWGAGTTVTVSS VL: DIVLTQSPASLGVSLGQRATISCRASKSVSTSGDSYMHWYQQKPGQSPKLLIYLASNLESGVPARFSGSGSGTDFTLNIHPVEEEDAATYYCQQSRELPLSFGAGTKLELK | 0.00019 s⁻¹ | 7e+06 M⁻¹ s⁻¹ | 1.03 h | 0.02 | 0.02 | 0.02 |
